Test results as given in patent US11311622B2, “Development of masked therapeutic antibodies to limit off-target effects” (CITY OF HOPE, priority 2010, dated 2022).

Molecular target: T1, MMP-9 (Homo sapiens, UniProt P14780)
T1 construct: purchased Calbiochem
Test: MMP-9 digestion of masked and cross-masked scFvs (SDS-PAGE)
Type: biochemical
Settings: into the mask and scFv proteins

T1 sequence (P14780 107-707 limits assumed, species assumed): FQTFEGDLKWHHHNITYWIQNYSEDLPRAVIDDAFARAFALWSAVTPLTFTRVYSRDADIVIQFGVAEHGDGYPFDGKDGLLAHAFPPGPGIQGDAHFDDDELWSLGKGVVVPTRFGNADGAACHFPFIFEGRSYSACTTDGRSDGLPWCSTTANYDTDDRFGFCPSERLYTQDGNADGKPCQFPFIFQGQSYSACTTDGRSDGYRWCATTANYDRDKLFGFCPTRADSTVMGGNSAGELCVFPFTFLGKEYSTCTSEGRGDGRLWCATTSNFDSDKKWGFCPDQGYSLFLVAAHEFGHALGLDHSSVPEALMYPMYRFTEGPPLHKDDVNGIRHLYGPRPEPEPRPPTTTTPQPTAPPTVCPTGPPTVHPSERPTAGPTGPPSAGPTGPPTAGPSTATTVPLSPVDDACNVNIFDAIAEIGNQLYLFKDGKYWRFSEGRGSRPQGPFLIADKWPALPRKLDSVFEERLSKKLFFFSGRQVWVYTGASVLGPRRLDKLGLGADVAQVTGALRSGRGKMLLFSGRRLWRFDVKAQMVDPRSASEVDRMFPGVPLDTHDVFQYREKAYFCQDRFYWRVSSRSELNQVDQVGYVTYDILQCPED

cleavage by recombinant active MMP-9: completely cleaved
B1: Masked 425: sEGFRdIII (S460P/G461N) mask, MMP-9 cleavable linker, scFv 425, FLAG and H6 tags; SEQ ID NO:6 (protein)
chain: MRPSGTAGAALLALLAALCPASRARKVCNGIGIGEFKDSLSINATNIKHFKNCTSISGDLHILPVAFRGDSFTHTPPLDPQELDILKTVKEITGFLLIAAWPENRTDLHAFENLEIIRGRTKMEGQFSLAVVSLNITSLGLRSLKEISDGDVIISGNKNLCYANTINWKKLFGTSGQKTKIISNRGENSCKATGQVCHALCSPEGCWGPEPKDCVSCRNVSRGRECCSRGGGSGGGSGGGSVPLSLYSGSTSGSGKSSEGSGSGAQGELVMTQSPAIMSASPGEKVTMTCSASSSVTYMYWYQQKPGSSPRLLIYDTSNLASGVPVRFSGSGSGTSYSLTISRMEAEDAATYYCQQWSSHIFTFGSGTKLEIKGGGGSGGGGSGGGGSQVQLVESGAELVKPGASVKLSCKASGYTFTSHWMHWVKQRAGQGLEWIGEFNPSNGRTNYNEKFKSKATLTVDKSSSTAYMQLSSLTSEDSAVYYCASRDYDYDGRYFDYWGQGTTLTVSDYKDDDDKTGHHHHHH
